# Assay results from patent US20090221474A1.
# Tests used:
# [1] = target: bovine HD1 (bovine thymus trapoxin binding proteins p46-p49) (bovine) (UniProt Q32PJ8); experiment: cell-based or functional assay
# [2] = target: bovine HD1 (bovine thymus trapoxin binding proteins p46-p49) (bovine) (UniProt Q32PJ8); experiment: depletion of bovine thymus Mono Q fractions by the K-trap affinity matrix
# Chain of bovine HD1 (bovine thymus trapoxin binding proteins p46-p49) (bovine) (Q32PJ8 whole entry): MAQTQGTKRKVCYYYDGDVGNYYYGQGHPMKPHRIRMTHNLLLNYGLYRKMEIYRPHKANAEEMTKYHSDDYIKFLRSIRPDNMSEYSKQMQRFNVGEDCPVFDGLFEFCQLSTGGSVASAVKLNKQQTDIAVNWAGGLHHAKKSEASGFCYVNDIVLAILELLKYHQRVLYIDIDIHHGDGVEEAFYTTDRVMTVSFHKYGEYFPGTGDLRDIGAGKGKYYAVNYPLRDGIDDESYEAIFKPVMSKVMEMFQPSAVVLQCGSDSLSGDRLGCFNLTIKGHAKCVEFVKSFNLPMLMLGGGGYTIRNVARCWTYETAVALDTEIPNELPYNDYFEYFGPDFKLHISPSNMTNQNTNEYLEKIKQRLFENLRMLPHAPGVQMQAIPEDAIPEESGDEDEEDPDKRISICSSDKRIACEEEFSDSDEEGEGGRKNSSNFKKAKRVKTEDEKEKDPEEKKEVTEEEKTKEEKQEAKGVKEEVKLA
inhibition of histone deacetylase activity [1] [nM],percent of trapoxin binding and histone deacetylase activity depleted [2] [%],Substance
20,,trapoxin (peptide)
,90,K-trap affinity matrix (peptide)
